The text below walks through data of IntAct's records for PubMed 29892012.

To fix the notation:
B1: Histone-lysine N-methyltransferase SETD5 (Homo sapiens), Q9C0A6 (parent)
chain: MSIAIPLGVTTSDTSYSDMAAGSDPESVEASPAVNEKSVYSTHNYGTTQRHGCRGLPYATIIPRSDLNGLPSPVEERCGDSPNSEGETVPTWCPCGLSQDGFLLNCDKCRGMSRGKVIRLHRRKQDNISGGDSSATESWDEELSPSTVLYTATQHTPTSITLTVRRTKPKKRKKSPEKGRAAPKTKKIKNSPSEAQNLDENTTEGWENRIRLWTDQYEEAFTNQYSADVQNALEQHLHSSKEFVGKPTILDTINKTELACNNTVIGSQMQLQLGRVTRVQKHRKILRAARDLALDTLIIEYRGKVMLRQQFEVNGHFFKKPYPFVLFYSKFNGVEMCVDARTFGNDARFIRRSCTPNAEVRHMIADGMIHLCIYAVSAITKDAEVTIAFDYEYSNCNYKVDCACHKGNRNCPIQKRNPNATELPLLPPPPSLPTIGAETRRRKARRKELEMEQQNEASEENNDQQSQEVPEKVTVSSDHEEVDNPEEKPEEEKEEVIDDQENLAHSRRTREDRKVEAIMHAFENLEKRKKRRDQPLEQSNSDVEITTTTSETPVGEETKTEAPESEVSNSVSNVTIPSTPQSVGVNTRRSSQAGDIAAEKLVPKPPPAKPSRPRPKSRISRYRTSSAQRLKRQKQANAQQAELSQAALEEGGSNSLVTPTEAGSLDSSGENRPLTGSDPTVVSITGSHVNRAASKYPKTKKYLVTEWLNDKAEKQECPVECPLRITTDPTVLATTLNMLPGLIHSPLICTTPKHYIRFGSPFIPERRRRPLLPDGTFSSCKKRWIKQALEEGMTQTSSVPQETRTQHLYQSNENSSSSSICKDNADLLSPLKKWKSRYLMEQNVTKLLRPLSPVTPPPPNSGSKSPQLATPGSSHPGEEECRNGYSLMFSPVTSLTTASRCNTPLQFELCHRKDLDLAKVGYLDSNTNSCADRPSLLNSGHSDLAPHPSLGPTSETGFPSRSGDGHQTLVRNSDQAFRTEFNLMYAYSPLNAMPRADGLYRGSPLVGDRKPLHLDGGYCSPAEGFSSRYEHGLMKDLSRGSLSPGGERACEGVPSAPQNPPQRKKVSLLEYRKRKQEAKENSAGGGGDSAQSKSKSAGAGQGSSNSVSDTGAHGVQGSSARTPSSPHKKFSPSHSSMSHLEAVSPSDSRGTSSSHCRPQENISSRWMVPTSVERLREGGSIPKVLRSSVRVAQKGEPSPTWESNITEKDSDPADGEGPETLSSALSKGATVYSPSRYSYQLLQCDSPRTESQSLLQQSSSPFRGHPTQSPGYSYRTTALRPGNPPSHGSSESSLSSTSYSSPAHPVSTDSLAPFTGTPGYFSSQPHSGNSTGSNLPRRSCPSSAASPTLQGPSDSPTSDSVSQSSTGTLSSTSFPQNSRSSLPSDLRTISLPSAGQSAVYQASRVSAVSNSQHYPHRGSGGVHQYRLQPLQGSGVKTQTGLS
partner: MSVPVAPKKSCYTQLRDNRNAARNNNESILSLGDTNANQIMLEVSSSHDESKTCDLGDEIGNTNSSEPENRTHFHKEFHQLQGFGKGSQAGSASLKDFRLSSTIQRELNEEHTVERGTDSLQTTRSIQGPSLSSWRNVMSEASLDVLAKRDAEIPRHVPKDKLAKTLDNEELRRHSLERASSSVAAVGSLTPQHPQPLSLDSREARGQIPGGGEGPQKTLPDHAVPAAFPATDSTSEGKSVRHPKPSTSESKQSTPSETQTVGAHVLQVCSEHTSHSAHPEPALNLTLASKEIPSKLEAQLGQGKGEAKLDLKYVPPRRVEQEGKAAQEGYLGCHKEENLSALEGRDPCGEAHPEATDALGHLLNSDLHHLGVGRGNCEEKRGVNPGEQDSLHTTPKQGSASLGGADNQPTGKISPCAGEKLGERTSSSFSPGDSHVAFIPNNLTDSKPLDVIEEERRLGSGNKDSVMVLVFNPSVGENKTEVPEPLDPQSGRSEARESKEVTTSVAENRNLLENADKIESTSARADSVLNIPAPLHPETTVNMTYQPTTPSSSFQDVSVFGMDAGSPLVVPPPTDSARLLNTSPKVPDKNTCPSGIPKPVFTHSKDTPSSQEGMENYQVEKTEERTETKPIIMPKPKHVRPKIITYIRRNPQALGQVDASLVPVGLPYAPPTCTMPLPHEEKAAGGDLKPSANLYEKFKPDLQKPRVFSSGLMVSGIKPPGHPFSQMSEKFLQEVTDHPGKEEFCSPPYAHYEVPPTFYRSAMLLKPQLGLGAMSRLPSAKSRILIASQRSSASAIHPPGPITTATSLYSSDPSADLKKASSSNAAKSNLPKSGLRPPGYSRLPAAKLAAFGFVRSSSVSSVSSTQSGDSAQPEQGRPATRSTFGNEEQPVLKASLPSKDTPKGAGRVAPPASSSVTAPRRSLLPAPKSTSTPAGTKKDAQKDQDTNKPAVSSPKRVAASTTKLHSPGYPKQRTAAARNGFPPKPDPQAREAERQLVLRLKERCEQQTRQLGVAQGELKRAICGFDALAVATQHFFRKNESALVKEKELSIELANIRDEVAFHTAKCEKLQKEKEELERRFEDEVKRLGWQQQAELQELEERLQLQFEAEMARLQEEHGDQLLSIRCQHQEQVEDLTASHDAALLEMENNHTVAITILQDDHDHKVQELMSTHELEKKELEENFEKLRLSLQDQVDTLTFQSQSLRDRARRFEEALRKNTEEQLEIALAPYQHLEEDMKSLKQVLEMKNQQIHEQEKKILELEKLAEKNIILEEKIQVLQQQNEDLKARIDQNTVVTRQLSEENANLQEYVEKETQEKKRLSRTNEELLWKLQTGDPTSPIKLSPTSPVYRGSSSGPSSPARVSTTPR
B2: BRCA1-A complex subunit RAP80 (Homo sapiens), Q96RL1 (parent)
chain: MPRRKKKVKEVSESRNLEKKDVETTSSVSVKRKRRLEDAFIVISDSDGEEPKEENGLQKTKTKQSNRAKCLAKRKIAQMTEEEQFALALKMSEQEAREVNSQEEEEEELLRKAIAESLNSCRPSDASATRSRPLATGPSSQSHQEKTTDSGLTEGIWQLVPPSLFKGSHISQGNEAEEREEPWDHTEKTEEEPVSGSSGSWDQSSQPVFENVNVKSFDRCTGHSAEHTQCGKPQESTGRGSAFLKAVQGSGDTSRHCLPTLADAKGLQDTGGTVNYFWGIPFCPDGVDPNQYTKVILCQLEVYQKSLKMAQRQLLNKKGFGEPVLPRPPSLIQNECGQGEQASEKNECISEDMGDEDKEERQESRASDWHSKTKDFQESSIKSLKEKLLLEEEPTTSHGQSSQGIVEETSEEGNSVPASQSVAALTSKRSLVLMPESSAEEITVCPETQLSSSETFDLEREVSPGSRDILDGVRIIMADKEVGNKEDAEKEVAISTFSSSNQVSCPLCDQCFPPTKIERHAMYCNGLMEEDTVLTRRQKEAKTKSDSGTAAQTSLDIDKNEKCYLCKSLVPFREYQCHVDSCLQLAKADQGDGPEGSGRACSTVEGKWQQRLKNPKEKGHSEGRLLSFLEQSEHKTSDADIKSSETGAFRVPSPGMEEAGCSREMQSSFTRRDLNESPVKSFVSISEATDCLVDFKKQVTVQPGSRTRTKAGRGRRRKF
partner: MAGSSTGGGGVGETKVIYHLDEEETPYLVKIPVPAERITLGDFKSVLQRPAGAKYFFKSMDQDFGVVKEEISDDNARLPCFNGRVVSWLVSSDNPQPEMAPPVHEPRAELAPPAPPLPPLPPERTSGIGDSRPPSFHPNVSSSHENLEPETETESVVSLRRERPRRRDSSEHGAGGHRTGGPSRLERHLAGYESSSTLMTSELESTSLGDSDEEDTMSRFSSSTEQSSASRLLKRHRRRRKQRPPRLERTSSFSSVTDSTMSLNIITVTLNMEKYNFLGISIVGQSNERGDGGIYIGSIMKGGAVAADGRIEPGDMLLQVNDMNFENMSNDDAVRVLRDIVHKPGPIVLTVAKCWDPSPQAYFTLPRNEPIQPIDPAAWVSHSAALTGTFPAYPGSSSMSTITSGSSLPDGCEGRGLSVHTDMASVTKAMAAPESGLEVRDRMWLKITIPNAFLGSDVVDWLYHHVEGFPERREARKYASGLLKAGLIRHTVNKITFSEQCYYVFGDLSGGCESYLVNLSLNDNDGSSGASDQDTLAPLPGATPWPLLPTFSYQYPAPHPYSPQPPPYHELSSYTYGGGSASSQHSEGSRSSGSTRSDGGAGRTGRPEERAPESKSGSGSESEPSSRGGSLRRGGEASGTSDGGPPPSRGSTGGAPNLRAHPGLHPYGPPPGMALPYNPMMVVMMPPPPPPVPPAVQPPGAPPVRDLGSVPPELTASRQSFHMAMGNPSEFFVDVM
B3: E3 ubiquitin-protein ligase LNX (Homo sapiens), Q8TBB1 (parent)
chain: MNQPESANDPEPLCAVCGQAHSLEENHFYSYPEEVDDDLICHICLQALLDPLDTPCGHTYCTLCLTNFLVEKDFCPMDRKPLVLQHCKKSSILVNKLLNKLLVTCPFREHCTQVLQRCDLEHHFQTSCKGASHYGLTKDRKRRSQDGCPDGCASLTATAPSPEVSAAATISLMTDEPGLDNPAYVSSAEDGQPAISPVDSGRSNRTRARPFERSTIRSRSFKKINRALSVLRRTKSGSAVANHADQGRENSENTTAPEVFPRLYHLIPDGEITSIKINRVDPSESLSIRLVGGSETPLVHIIIQHIYRDGVIARDGRLLPGDIILKVNGMDISNVPHNYAVRLLRQPCQVLWLTVMREQKFRSRNNGQAPDAYRPRDDSFHVILNKSSPEEQLGIKLVRKVDEPGVFIFNVLDGGVAYRHGQLEENDRVLAINGHDLRYGSPESAAHLIQASERRVHLVVSRQVRQRSPDIFQEAGWNSNGSWSPGPGERSNTPKPLHPTITCHEKVVNIQKDPGESLGMTVAGGASHREWDLPIYVISVEPGGVISRDGRIKTGDILLNVDGVELTEVSRSEAVALLKRTSSSIVLKALEVKEYEPQEDCSSPAALDSNHNMAPPSDWSPSWVMWLELPRCLYNCKDIVLRRNTAGSLGFCIVGGYEEYNGNKPFFIKSIVEGTPAYNDGRIRCGDILLAVNGRSTSGMIHACLARLLKELKGRITLTIVSWPGTFL
partner: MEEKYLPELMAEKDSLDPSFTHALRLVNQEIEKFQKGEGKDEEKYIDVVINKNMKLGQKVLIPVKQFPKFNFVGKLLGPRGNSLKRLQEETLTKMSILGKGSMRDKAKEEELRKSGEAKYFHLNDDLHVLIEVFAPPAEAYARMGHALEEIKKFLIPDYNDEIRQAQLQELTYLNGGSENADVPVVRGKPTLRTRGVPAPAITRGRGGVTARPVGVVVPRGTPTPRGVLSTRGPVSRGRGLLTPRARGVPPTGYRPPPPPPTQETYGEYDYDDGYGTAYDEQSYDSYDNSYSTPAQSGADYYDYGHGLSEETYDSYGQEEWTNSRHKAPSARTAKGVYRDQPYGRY

The variants in the first test derive from B1. Particulars: with mtus2_human MTUS2, Q5JR59.
On to G669R, for which the “effect of a mutation on the interaction” value is “with no effect”.

The next test covers variants of B2. The conditions noted are these: with dvl2_human DVL2, O14641.
For the variant Q631E, the “effect of a mutation on the interaction” value is on record as “with no effect”.

Variants of B2 are the subject of another test. The conditions noted are these: with dvl2_human DVL2, O14641. The source holds these as a separate data set.
On to R34H, for which the “effect of a mutation on the interaction” value is given as “disrupting interaction strength”.

In a further test the parent is B3. The conditions noted are these: with khdr3_human KHDRBS3, O75525.
As for E295K, the “effect of a mutation on the interaction” value is “disrupting interaction strength”.
